The source of these data is article PMC4479991.

Series [1] concerns the target T1, zif268 (EGR1 DNA-binding domain), cleaved (UniProt P08046 333-421). The series is described as follows: EMSA; 1:300 DNA:protein; EMSA: binding on ice, at least 1 h, native PAGE 8% (oligos) or 3.5% (1 kb), salt up to 1 M KCl; nanopore: 1 M KCl, 30 min incubation at 200:1 protein:DNA; pH no.
In series [2] the target is T2, zif268_GST (uncleaved fusion) (UniProt P08046 333-421). Described as above.
Series [3] deals with T1, zif268 (EGR1 DNA-binding domain), …. The series is described as follows: EMSA; up to 1 M KCl; binding saturates at about 1:200 DNA:protein; EMSA: binding on ice, at least 1 h, native PAGE 8% (oligos) or 3.5% (1 kb), salt up to 1 M KCl; nanopore: 1 M KCl, 30 min incubation at 200:1 protein:DNA; pH no.
Series [4] has the same target. The series is described as follows: EMSA; EMSA: binding on ice, at least 1 h, native PAGE 8% (oligos) or 3.5% (1 kb), salt up to 1 M KCl; nanopore: 1 M KCl, 30 min incubation at 200:1 protein:DNA; pH no.
In series [5] the target is T2, zif268_GST (uncleaved fusion). Described as above.

B1: (+) 50 bp oligo, 2 sites separated by 6 bp (dsDNA)
DNA 1: CAGGCGTGGGCGCTGCAGGCGTGGGCGCC
DNA 2: TCGAGGCGCCCACGCCTGCAGCGCCCACGCCTGGTAC
Regarding B1, the binding result in series [1] and in series [2] was “binds” throughout.

B2: Atto-647 50 bp oligo, 1 site (dsDNA)
DNA 1: AGTCTGTTACGCTGGCCTCTGCGTGGGCGAATTCGCATGCGCAACCCCAC
DNA 2: GTGGGGTTGCGCATGCGAATTCGCCCACGCAGAGGCCAGCGTAACAGACT
Regarding B2, the binding result in series [3] is given as “binds”.

B3: (-) 50 bp oligo, no site (dsDNA)
DNA 1: CAGTATGCAAATGACTGCAGTATGCAAATGACC
DNA 2: TCGAGGTCATTTGCATACTGCAGTCATTTGCATACTGGTAC
In the case of B3, the binding result in series [4] and in series [5] was “no binding” throughout.
